Measured values reported in the supplement of paper PMC11136658.

System: peptide library, one residue held at a place counted from the Y acceptor
Assay: relative phosphorylation of the sub-library (ratio to the mean residue at this position); higher = residue favoured
In short: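 Each value expresses phosphorylation relative to the mean randomized residue. Purified recombinant kinases acted for 90 min in 384-well plates on biotinylated Tyr-centred peptide library mixtures, with one residue fixed at one position from −5 to +5, in the presence of 50 μM ATP with γ-32P-ATP. Signals were read by phosphorimaging after capture on streptavidin membranes, then normalized per position to the sum of the 18 randomized residues (16 in the Ser/Thr-free library) and multiplied by that number.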

Sequence of INSR, construct: aa1110-end, human (P06213 1110-1382, looked up): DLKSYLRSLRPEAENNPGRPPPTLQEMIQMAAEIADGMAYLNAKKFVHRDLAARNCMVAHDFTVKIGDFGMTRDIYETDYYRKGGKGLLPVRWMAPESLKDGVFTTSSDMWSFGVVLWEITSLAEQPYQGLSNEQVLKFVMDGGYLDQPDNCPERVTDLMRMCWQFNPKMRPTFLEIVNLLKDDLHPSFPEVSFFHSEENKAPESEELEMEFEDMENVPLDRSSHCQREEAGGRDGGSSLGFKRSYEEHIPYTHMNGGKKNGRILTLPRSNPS
Sequence of HCK, construct: aa230-497, human (P08631 230-497, looked up): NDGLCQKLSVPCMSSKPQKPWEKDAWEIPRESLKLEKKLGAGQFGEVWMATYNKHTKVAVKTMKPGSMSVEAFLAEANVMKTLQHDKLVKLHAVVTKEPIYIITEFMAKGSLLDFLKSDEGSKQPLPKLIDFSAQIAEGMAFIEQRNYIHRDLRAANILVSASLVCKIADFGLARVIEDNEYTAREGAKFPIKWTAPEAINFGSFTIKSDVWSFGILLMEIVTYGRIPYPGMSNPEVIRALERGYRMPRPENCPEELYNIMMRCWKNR
Sequence of FYN, construct: Full length, human (P06241 whole entry, looked up): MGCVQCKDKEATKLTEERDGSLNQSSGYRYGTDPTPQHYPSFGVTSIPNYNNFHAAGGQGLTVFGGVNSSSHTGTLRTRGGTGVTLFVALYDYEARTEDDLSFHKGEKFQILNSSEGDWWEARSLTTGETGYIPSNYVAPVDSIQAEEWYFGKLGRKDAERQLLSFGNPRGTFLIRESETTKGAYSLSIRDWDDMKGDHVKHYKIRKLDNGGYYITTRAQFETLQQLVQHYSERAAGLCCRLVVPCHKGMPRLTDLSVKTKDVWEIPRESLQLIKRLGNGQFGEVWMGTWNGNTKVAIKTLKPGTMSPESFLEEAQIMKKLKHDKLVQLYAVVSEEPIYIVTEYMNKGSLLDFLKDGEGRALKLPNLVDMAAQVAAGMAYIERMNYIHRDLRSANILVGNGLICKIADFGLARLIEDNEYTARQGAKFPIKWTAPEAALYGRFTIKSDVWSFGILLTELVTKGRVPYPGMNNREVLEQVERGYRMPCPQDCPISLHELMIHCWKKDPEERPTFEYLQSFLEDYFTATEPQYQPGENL
Sequence of IGF1R, construct: aa960-end, human (P08069 960-1367, looked up): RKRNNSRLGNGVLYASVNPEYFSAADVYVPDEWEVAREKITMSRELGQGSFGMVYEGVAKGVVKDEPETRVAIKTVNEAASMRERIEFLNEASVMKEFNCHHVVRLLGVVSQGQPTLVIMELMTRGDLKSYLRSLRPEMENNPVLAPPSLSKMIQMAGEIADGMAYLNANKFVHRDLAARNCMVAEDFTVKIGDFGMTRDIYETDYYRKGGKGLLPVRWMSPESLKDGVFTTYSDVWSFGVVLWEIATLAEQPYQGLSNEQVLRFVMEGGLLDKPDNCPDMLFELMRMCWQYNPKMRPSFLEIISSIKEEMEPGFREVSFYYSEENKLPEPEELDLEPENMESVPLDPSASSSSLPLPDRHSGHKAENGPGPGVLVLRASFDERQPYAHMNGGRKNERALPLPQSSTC

FYN, construct: Full length, human (from UniProt P06241)
relative phosphorylation
Conditions	at +1	at +2	at +3	at +4	at +5	at -1	at -2	at -3	at -4	at -5
A fixed	1.68	1.07	0.544	0.857	0.903	0.622	1.04	0.787	1.08	1.02
D fixed	0.925	0.762	0.546	1.02	0.987	0.867	1.77	2.4	1.64	1.5
E fixed	1.79	1.76	0.601	1	0.951	1.08	1.95	2.8	1.89	1.35
F fixed	0.656	1.08	3.35	1.23	1.16	0.885	0.483	0.803	0.997	0.993
G fixed	3.49	0.728	0.941	1.03	1.03	0.467	1.38	0.91	1.17	1.14
H fixed	0.53	0.515	0.732	0.901	1.01	0.419	0.77	0.814	0.726	0.924
I fixed	0.861	1.06	1.72	0.735	0.718	3.38	0.717	0.641	0.796	0.833
K fixed	0.231	0.61	0.397	1.12	1.04	0.221	0.515	0.469	0.622	0.901
L fixed	0.635	1.02	1.39	0.912	0.92	1.76	0.716	0.672	0.906	0.933
M fixed	0.992	1.05	0.894	1.04	0.858	0.806	0.667	0.729	0.784	0.904
N fixed	0.504	0.806	0.455	0.81	1.03	0.33	1.34	1.26	0.903	0.97
P fixed	0.291	0.734	0.571	0.945	1.48	1.2	1.43	0.969	1.32	1.17
Q fixed	0.906	0.951	0.539	1.14	0.81	0.521	1.2	0.965	1.08	0.978
R fixed	0.311	0.79	0.728	1.14	1.22	0.227	0.612	0.56	0.744	0.886
S fixed	1.01	1.32	0.628	0.977	1.03	0.44	1.23	0.945	0.813	0.865
T fixed	0.895	1.39	0.92	0.861	0.996	1.33	0.774	0.79	0.733	0.779
V fixed	0.935	1.28	1.4	0.882	0.722	2.95	0.793	0.649	0.821	0.84
W fixed	1.36	1.08	1.64	1.38	1.14	0.497	0.606	0.838	0.973	1
pThr fixed	1.64	2.15	0.627	0.773	0.686	4.17	1.92	1.58	1.42	1.31
pTyr fixed	3.45	1.96	0.89	1.23	1.11	1.34	1.37	1.71	1.52	1.32

HCK, construct: aa230-497, human (from UniProt P08631)
relative phosphorylation
Conditions	at +1	at +2	at +3	at +4	at +5	at -1	at -2	at -3	at -4	at -5
A fixed	1.66	0.982	0.656	0.876	1.06	0.652	1.08	0.95	1.15	1.1
D fixed	0.917	0.585	0.323	0.623	0.676	0.844	1.29	1.43	1.16	1.18
E fixed	1.55	1.19	0.316	0.766	0.746	1.04	1.49	1.65	1.47	1.01
F fixed	0.785	1	2.12	1.08	1.05	1.09	0.717	1.11	0.966	0.987
G fixed	2.28	0.813	0.862	1.11	1.09	0.456	1.31	1.02	1.31	1.18
H fixed	0.812	0.659	0.992	1.09	0.964	0.768	0.915	1.01	0.85	0.907
I fixed	0.815	1.15	1.84	0.87	0.769	2.91	0.843	0.718	0.977	0.922
K fixed	0.253	0.807	0.675	1.31	1.27	0.259	0.633	0.543	0.629	0.91
L fixed	0.816	1.03	1.49	0.907	0.984	2.15	1	0.956	1.18	1.09
M fixed	1.37	1.13	1.1	1.31	1.06	1.12	0.808	0.964	1.11	1.1
N fixed	0.612	0.95	0.477	0.801	0.853	0.414	1.24	1.15	0.817	0.995
P fixed	0.265	0.975	0.758	0.902	1.26	0.769	1.06	1.06	1.15	1.16
Q fixed	0.923	0.888	0.508	0.99	0.731	0.521	1.04	0.867	0.934	0.99
R fixed	0.369	0.993	1.18	1.49	1.51	0.228	0.667	0.58	0.685	0.772
S fixed	1.12	1.17	0.663	0.972	1.05	0.489	1.18	1.02	0.761	0.942
T fixed	0.97	1.42	0.706	0.924	0.998	1.35	1.01	0.961	0.709	0.845
V fixed	1.14	1.17	1.36	0.872	0.811	2.24	0.95	0.807	0.925	0.912
W fixed	1.34	1.08	1.98	1.11	1.12	0.698	0.771	1.2	1.21	0.99
pThr fixed	0.949	1.18	0.296	0.431	0.421	2.4	1.22	1.12	1.05	1.09
pTyr fixed	1.46	1.61	0.497	0.628	0.569	1.09	1.21	1.37	1.4	1.1

IGF1R, construct: aa960-end, human (from UniProt P08069)
relative phosphorylation
Conditions	at +1	at +2	at +3	at +4	at +5	at -1	at -2	at -3	at -4	at -5
A fixed	1.7	0.629	0.386	0.818	0.794	1.07	1.11	0.892	1.01	0.847
D fixed	0.473	0.626	0.286	1.12	0.708	3.28	1.46	1.52	1.41	1.33
E fixed	0.838	1.42	0.255	1.68	0.671	1.61	1.71	1.77	1.86	1.05
F fixed	1.68	1.48	2	1.45	2.54	0.717	0.697	1.1	1.05	1.01
G fixed	0.585	0.273	0.367	0.844	0.83	0.547	1.18	0.991	1.03	1.06
H fixed	1.42	0.838	1.57	1.19	1.03	0.864	0.937	1.05	0.915	0.963
I fixed	1.28	1.15	1.94	0.843	0.91	1.2	0.736	0.654	0.819	0.997
K fixed	0.216	0.408	0.307	0.679	0.648	0.21	0.8	0.711	0.863	0.983
L fixed	1.08	1.59	1.35	0.694	1.02	0.964	0.839	0.798	0.886	0.916
M fixed	2.42	1.67	1.43	1.01	0.951	0.744	0.651	0.853	0.875	0.954
N fixed	0.319	0.74	0.288	0.787	0.764	1.83	1.34	1.4	0.971	1.12
P fixed	0.311	0.589	0.291	0.796	1.62	1.11	1.1	0.914	0.98	1.06
Q fixed	0.646	0.733	0.353	1.12	0.674	0.663	1.16	0.922	1.14	1.09
R fixed	0.178	0.588	0.433	0.799	0.914	0.239	0.893	0.899	0.977	1.12
S fixed	0.879	0.659	0.423	0.883	0.841	0.75	1.16	1.01	0.82	0.858
T fixed	0.755	0.661	0.525	0.86	0.704	0.778	0.86	0.973	0.645	0.864
V fixed	1.51	1.13	1.21	0.873	0.695	0.966	0.739	0.652	0.787	0.788
W fixed	1.71	2.83	4.6	1.55	1.68	0.451	0.63	0.901	0.967	0.983
pThr fixed	1.78	0.865	0.247	0.783	0.704	2.1	1.17	1.37	1.18	1.1
pTyr fixed	1.8	2.89	0.461	1.93	0.573	6.45	2.12	1.56	1.65	1.48

INSR, construct: aa1110-end, human (from UniProt P06213)
relative phosphorylation
Conditions	at +1	at +2	at +3	at +4	at +5	at -1	at -2	at -3	at -4	at -5
A fixed	1.55	0.678	0.593	0.95	0.917	1.09	1.09	0.925	1.09	1.07
D fixed	0.383	0.584	0.264	1.04	0.792	2.65	1.14	1.34	1.3	1.14
E fixed	0.627	1.31	0.234	0.976	0.731	1.14	1.26	1.48	1.31	0.983
F fixed	1.41	1.13	1.62	1.02	1.56	0.696	0.621	0.912	1.03	0.834
G fixed	0.731	0.419	0.545	0.809	0.858	0.554	1.24	0.872	1.36	1.23
H fixed	1.67	0.915	1.47	1.16	1.17	1.16	0.95	1.11	0.965	0.975
I fixed	1.21	1.16	1.92	0.902	0.978	1.04	0.87	0.616	0.817	0.935
K fixed	0.275	0.602	0.475	0.951	0.919	0.27	0.8	0.861	0.835	1.11
L fixed	0.986	1.35	1.61	0.841	1.14	0.981	0.957	0.867	0.879	0.913
M fixed	2.41	1.53	1.74	1.16	1.08	0.789	0.743	0.929	0.804	0.976
N fixed	0.312	0.941	0.347	0.762	0.813	2.16	1.25	1.51	0.939	1.22
P fixed	0.317	0.706	0.421	0.704	1.05	1.04	1.29	0.905	1.17	0.956
Q fixed	0.805	0.811	0.46	1.19	0.806	0.747	1.22	1.06	1.22	1.1
R fixed	0.227	0.868	0.706	0.953	1.02	0.266	0.831	0.913	0.913	1.13
S fixed	0.926	0.804	0.534	1.07	1.04	0.901	1.18	1.09	0.814	0.896
T fixed	0.946	0.781	0.673	0.843	0.84	0.97	1.08	0.941	0.731	0.828
V fixed	1.45	1.08	1.13	0.968	0.937	0.989	0.796	0.698	0.746	0.798
W fixed	1.76	2.34	3.26	1.69	1.35	0.558	0.684	0.978	1.08	0.902
pThr fixed	1.28	0.717	0.229	0.55	0.612	1.28	1.01	1.11	1.09	0.769
pTyr fixed	1.36	2.45	0.487	1.48	0.585	4.11	1.68	1.51	1.28	0.991
